Measurements published in patent US20230383007A1 (BIOSION, published 2023).

What was measured:
human TROP2-his protein [1] = molecular target: T1, human TROP2-his protein (human, UniProt P09758 27-274); assay: indirect ELISA on human TROP2; unit taken from the x axis (nM)
T1 construct: also called biotin labeled human TROP2-his protein
T1 sequence: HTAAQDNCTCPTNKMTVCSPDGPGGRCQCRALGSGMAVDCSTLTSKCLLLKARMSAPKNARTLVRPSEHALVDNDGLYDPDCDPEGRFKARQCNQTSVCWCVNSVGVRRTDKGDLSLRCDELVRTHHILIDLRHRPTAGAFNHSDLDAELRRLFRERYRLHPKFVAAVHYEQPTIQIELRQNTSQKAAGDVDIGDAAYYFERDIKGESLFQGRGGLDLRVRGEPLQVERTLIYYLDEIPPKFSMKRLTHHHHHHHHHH

[2] = molecular target: T2, cynomolgus TROP2-his protein (cynomolgus, UniProt P09758 27-272 (human entry), limits assumed); assay: indirect ELISA on cynomolgus TROP2; unit taken from the x axis (nM)
T2 construct: also called Cyno TROP2-his; Cynomolgus monkey TROP2-his protein
T2 chain: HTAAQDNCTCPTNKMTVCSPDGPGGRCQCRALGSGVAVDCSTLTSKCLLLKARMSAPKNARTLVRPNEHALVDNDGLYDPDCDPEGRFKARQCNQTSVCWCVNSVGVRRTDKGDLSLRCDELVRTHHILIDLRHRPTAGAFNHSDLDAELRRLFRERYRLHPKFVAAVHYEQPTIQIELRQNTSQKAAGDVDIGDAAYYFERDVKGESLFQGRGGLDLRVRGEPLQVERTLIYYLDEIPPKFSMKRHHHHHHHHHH

human TROP2-his protein [3] = molecular target: T1, human TROP2-his protein; assay: indirect ELISA, plate coated with human TROP2-his; unit taken from the x axis (Con of mAb, ng/mL)
Experimental: The single domain antibodies of the disclosure were tested in the indirect ELISA for their cross-reaction with cynomolgus TROP2 protein. Briefly, 96-well micro plates were coated with 100 μl 2 μg/ml human TROP2-his protein (prepared in-house with SEQ ID NO: 16) in carbonate/bicarbonate buffer (pH 9.6) overnight at 4° C. ELISA plates were washed once with wash buffer (PBS+0.05% v/v Tween-20, PBST) and then blocked with 200 μl/well blocking buffer (5% w/v non-fatty milk in PBST) for 2 hours at 37° C. Plates were washed 4 times and incubated with 100 μl/well serially diluted anti-TROP2 antibodies of the disclosure or controls (starting at 66.7 nM, 5-fold serial dilution in 2.5% w/v non-fatty milk in PBST) for 40 minutes at 37° C. ELISA plates were washed 4 times again and incubated with Peroxidase AffiniPure F(ab′)₂ Fragment Goat Anti-Human IgG, Fey fragment specific (Jackson Immuno Research, Cat #109-036-098, 1:5000 dilution in PBST buffer, 100 μl/well) for 40 minutes at 37° C. After a final wash, plates were incubated with 100 μl/well TMB (Innoreagents) at room temperature. The reaction was stopped 3-10 minutes later at room temperature with 50 μl/well 1M H₂SO₄, and the absorbance of each well was read on a microplate reader using dual wavelength mode with 450 nm for TMB and 630 nm as the reference wavelength. The OD (450-630) values were plotted against antibody concentration. Data was analyzed using Graphpad Prism software and EC₅₀ values were reported.

[4] = molecular target: T2, cynomolgus TROP2-his protein; assay: SPR Biacore T200; antibody captured on anti-human IgG CM5 chip, TROP2-his as analyte in 2-fold dilutions from 160 nM; 1:1 Langmuir fit
Text: The purified anti-TROP2 mouse monoclonal antibodies (mAbs) were characterized for binding affinity and binding kinetics by Biacore T200 system (GE healthcare, Pittsburgh, PA, USA). Briefly, goat anti-human IgG (GE healthcare, Cat #BR100839, Human Antibody Capture Kit) was covalently linked to a CM5 chip (carboxy methyl dextran coated chip from GE healthcare #BR100530) via primary amines, using a standard amine coupling kit (GE healthcare, Pittsburgh, PA, USA) provided by Biacore. Un-reacted moieties on the chip (biosensor) surface were blocked with ethanolamine. The anti-TROP2 antibodies of the disclosure and the benchmark at the concentration of 2 μg/ml were respectively flowed onto the chip at a flow rate of 10 μL/min. Then, serially diluted human TROP2-his protein (prepared in-house with SEQ ID NO: 16), or cynomolgus TROP2-his protein (prepared in-house with SEQ ID NO: 19), 2-fold dilution in HBS-EP⁺ buffer (provided by Biacore) starting at 160 nM, were flowed onto the chip at a flow rate of 30 μL/min. The antigen-antibody association kinetics was followed for 2 minutes and the dissociation kinetics was followed for 10 minutes. The association and dissociation curves were fit to a 1:1 Langmuir binding model using BIAcore evaluation software.

human TROP2-his protein [5] = molecular target: T1, human TROP2-his protein; assay: capture ELISA: antibody captured on anti-human IgG Fc coated plate, biotin labeled human TROP2-his detected with streptavidin-HRP; unit taken from the x axis (nM)
Experimental: For the capture ELISA, 96-well plates were coated with 100 μl 2 μg/ml AffiniPure F(ab′)₂ Fragment GoatAnti-Human IgG, Fey fragment specific (Jackson Immuno Research, Cat #109-006-008) in PBS overnight at 4° C. Plates were washed once with wash buffer (PBS+0.05% v/v Tween-20, PBST) and then blocked with 200 μl/well blocking buffer (5% w/v non-fatty milk in PBST) for 2 hours at 37° C. Plates were washed 4 times and respectively incubated with 100 μl serially diluted anti-TROP2 antibodies of the disclosure, the benchmark or negative control hIgG (human immunoglobulin (pH4) for intravenous injection, Hualan Biological Engineering Inc.) (5-fold dilution in 2.5% w/v non-fatty milk in PBST, starting at 66.7 nM) for 40 minutes at 37° C., and then washed 4 times again. […] The reaction was stopped in 3-10 minutes at room temperature with 50 μl/well 1M H₂SO₄, and the absorbance of each well was read on a microplate reader using dual wavelength mode with 450 nm for TMB and 630 nm as the reference wavelength. […] Data was analyzed using Graphpad Prism software and EC₅₀ values were reported.

B1: single domain antibody 01-9F (VHH)
VHH: QVQLVESGGGSVQAGGSLRLSCVVSGLPYERYCVAWFRQGPGKEREGVARILSDGTTSYSDSVKGRFTISKDNAKNTLYLQMNSLKSEDTATYYCAAEAFRPFTPSDGDCTTVLGIDYWGKGTPVTVSS
B1 showed an EC50 (human TROP2-his protein [1]) of 0.104 nM, an EC50 [2] of 0.107 nM and an EC50 (human TROP2-his protein [3]) of 0.0208 mg/L. For the same binder, the Kd [4] was 0.558 nM, the koff [4] was 0.000161 s⁻¹ and the kon [4] was 287000 M⁻¹ s⁻¹. For the same binder, the EC50 (human TROP2-his protein [5]) was 0.164 nM.

B2: sacituzumab (benchmark, an analog of sacituzumab, in house made) (antibody, human IgG1, kappa, V domains shown)
VH: SVQLQQSGSELKKPGASVKVSCKASGYTFTNYGMNWVKQAPGQGLKWMGWINTYTGEPTYTDDFKGRFAFSLDTSVSTAYLQISSLKADDTAVYFCARGGFGSSYWYFDVWGQGSLVTVSS
VL: DIQLTQSPSSLSASVGDRVSITCKASQDVSIAVAWYQQKPGKAPKLLIYSASYRYTGVPDRFSGSGSGTDFTLTISSLQPEDFAVYYCQQHYITPLTFGAGTKVEIKR
notes: also called BM; BM1
B2 was tested, and the EC50 (human TROP2-his protein [1]) was 0.162 nM, the EC50 [2] was 0.161 nM and the EC50 (human TROP2-his protein [3]) was 0.0374 mg/L. It also gave a Kd [4] of 0.874 nM, a koff [4] of 0.000224 s⁻¹ and a kon [4] of 257000 M⁻¹ s⁻¹. The EC50 (human TROP2-his protein [5]) was 0.269 nM.
